# Where a chain is given by its changes, count along the chain named. Numbers in names are those of the source.
# T1: CXCR2:YFP fusion protein (UniProt P25025 1-360)
# T1 construct: whole, on cells
# T1 sequence (looked up): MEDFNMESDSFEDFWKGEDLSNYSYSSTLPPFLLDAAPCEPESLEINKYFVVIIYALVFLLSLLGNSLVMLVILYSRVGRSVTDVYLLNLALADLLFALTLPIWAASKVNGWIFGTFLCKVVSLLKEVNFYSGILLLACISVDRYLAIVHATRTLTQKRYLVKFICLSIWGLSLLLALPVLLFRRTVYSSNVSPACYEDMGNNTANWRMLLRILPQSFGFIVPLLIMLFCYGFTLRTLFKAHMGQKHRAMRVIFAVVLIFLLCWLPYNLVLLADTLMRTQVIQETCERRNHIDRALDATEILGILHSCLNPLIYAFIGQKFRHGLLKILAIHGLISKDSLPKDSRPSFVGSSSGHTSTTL
# B1: humanized antibody Hz515H7 VH1 D76N VL2.2 (antibody, human IgG1, kappa, V domains shown)
# VH: EVQLVESGGGLVQPGRSLRLSCTASGFTFTDNYMSWVRQAPGKGLEWVGFIRNKANGYTTEYAASVKGRFTISRDNSKSIAYLQMNSLKTEDTAVYYCARDVGSNYFDYWGQGTLVTVSS
# VL: DIVMTQSPDSLAVSLGERATMSCKSSQSLFNSRTRKNYLAWYQQKPGQPPKLLIYWASARDSGVPDRFTGSGSETYFTLTISRVQAEDVAVYYCMQSFNLRTFGQGTKVEIKR
# notes: human IgG1/kappa format; also called hz515H7VL2.2
# B2: humanized antibody Hz515H7 VH1/c515H7 VL (antibody, human IgG1, V domains shown)
# VH: B1 VH with N76D
# VL: B1 VL with T5S, D9S, L15A, R18K, A19V, P49S, D66A, V89L
# notes: also called VH1 combined with the chimeric VL (cVL); VH1 combined with the murine VL
# B3: humanized antibody Hz515H7 VH1 VL1 (antibody, human IgG1, kappa, V domains shown)
# VH: B1 VH with N76D
# VL: B1 VL with M21I, S22N, A59T, D61E, T69S, E74G, Y76D, R83S, V84L
# notes: human IgG1/kappa format; also called humanized variant 515H7 VH variant 1 VL variant 1
# B4: hz515H7 VH1 VL2 (antibody, human IgG1, kappa, V domains shown)
# VH: B1 VH with N76D
# VL: B1 VL with D9S, P49S, D66A, V89L
# notes: also called VH1 combined with variant 2 of VL
# B5: humanized antibody Hz515H7 VH1 D76N VL2.3 (antibody, human IgG1, kappa, V domains shown)
# VH: B1 VH
# VL: B1 VL with R83S, V84L, V89L
# notes: human IgG1/kappa format; also called hz515H7VL2.3
# B6: humanized antibody Hz515H7 VH1 D76N VL2 (antibody, human IgG1, kappa, V domains shown)
# VH: B1 VH
# VL: B1 VL with D9S, P49S, D66A, V89L
# notes: human IgG1/kappa format; Biotinylated in the IHC study; also called hz515H7VL2; hz515H7 VH D76N VL2
# B7: humanized antibody Hz515H7 VH1 D76N VL2.1 (antibody, human IgG1, kappa, V domains shown)
# VH: B1 VH
# VL: B1 VL with T69S, V89L
# notes: human IgG1/kappa format; also called hz515H7VL2.1
# B8: murine monoclonal antibody 515H7 (antibody, V domains shown)
# VH: EVNLVESGGGLVQPGGSLRLSCATSGFTFTDNYMSWVRQPPGKALEWLGFIRNKANGYTTDYSASVRGRFTISRDNSQSILYLQMNALRAEDSATYYCARDVGSNYFDYWGQGTTLTVSS
# VL: DIVMSQSPSSLAVSAGEKVTMSCKSSQSLFNSRTRKNYLAWYQQKPGQSPKLLIYWASARDSGVPARFTGSGSETYFTLTISRVQAEDLAVYYCMQSFNLRTFGQGTKVEIK
# B9: anti-CXCR4 chimeric Mab c515H7 (antibody, human IgG1, kappa, V domains shown)
# VH: B8 VH
# VL: B1 VL with T5S, D9S, L15A, R18K, A19V, P49S, D66A, V89L
# notes: also called chimeric 515H7; chimeric antibody
# B10: CXCR4/Rluc fusion protein (receptor, UniProt P61073 1-352, looked up)
# chain: MEGISIYTSDNYTEEMGSGDYDSMKEPCFREENANFNKIFLPTIYSIIFLTGIVGNGLVILVMGYQKKLRSMTDKYRLHLSVADLLFVITLPFWAVDAVANWYFGNFLCKAVHVIYTVNLYSSVLILAFISLDRYLAIVHATNSQRPRKLLAEKVVYVGVWIPALLLTIPDFIFANVSEADDRYICDRFYPNDLWVVVFQFQHIMVGLILPGIVILSCYCIIISKLSHSKGHQKRKALKTTVILILAFFACWLPYYIGISIDSFILLEIIKQGCEFENTVHKWISITEALAFFHCCLNPILYAFLGAKFKTSAQHALTSVSRGSSLKILSKGKRGGHSSVSTESESSSFHSS
# notes: whole, on cells; Transiently expressed in HEK293 cells for BRET; also called CXCR4 tagged with luciferase; not shown: Renilla reniformis luciferase (Rluc)
# Legend:
# [1] = molecular target: constitutively active mutant (CAM) Asn^119Ser CXCR4 receptor (human) (UniProt P61073); test: cell-based or functional assay
# human CXCR4 receptor [2] = molecular target: T2, human CXCR4 receptor (human, UniProt P61073 1-352); test: competition of [^125I]SDF-1 (1 nM) binding, SPA, CHO-K1 membranes expressing human CXCR4
# T2 construct: whole, on cells; Transfected in NIH3T3 and CHO-K1 cells (whole cells or cell membranes) or endogenous on human tumor cell lines (MDA-MB-231, HeLa, U937, Ramos, KARPAS299); also called hCXCR4; wild-type CXCR4 receptor
# Experimental: (§1) CHO-K1 cells, stably and constitutively expressing human CXCR4 receptor were obtained upon transfection of naïve CHO-K1 cells (ATCC CCL-61) with a mammalian expression vector carrying the whole coding sequence of human CXCR4 receptor (RefSeq NM_{—}003467). Cells were propagated in complete culture medium [DMEM-Ham's F12 supplemented with 5% fetal calf serum (FCS) and 500 μg/ml of geneticin]. Radioligand binding experiments were conducted on cell membranes obtained upon mechanical scrapping of CHO/CXCR4 cells in lysis buffer [Hepes 20 mM, pH 7.4, NaCl 150 mM] followed by centrifugation (10000 g, 15 min). […] Upon centrifugation [1000 g for 10 min.] radioactive counts were measured in a scintillation counter (TopCount, Perkin Elmer).
# human CXCR4 receptor [3] = molecular target: T2, human CXCR4 receptor; test: cell-based or functional assay
# human CXCR4 receptor [4] = molecular target: T2, human CXCR4 receptor; test: dose-dependent inhibition of [^125I]SDF-1 binding, SPA, CHO-K1 membranes expressing human CXCR4
# Experimental: as §1
# human CXCR4 receptor [5] = molecular target: T2, human CXCR4 receptor; test: flow cytometry competition on CXCR4 transfected NIH3T3 cells; competitor: biotinylated murine 515H7
# From the text: In a first series of experiments, we constructed and analysed the anti-CXCR4 binding activities of the three first humanized variants. […] Therefore, VH1 was combined with the three different variants of VL (FIG. 23D-F).
# human CXCR4 receptor [6] = molecular target: T2, human CXCR4 receptor; test: competition of [^125I]SDF-1 (1 nM) binding, Mab at 100 nM, SPA, CHO-K1 membranes expressing human CXCR4
# Experimental: as §1
# CXCR2:YFP fusion protein = molecular target: T1, CXCR2:YFP fusion protein; test: BRET in transiently transfected HEK293 cells
# Experimental: The day after, cells were distributed in poly-lysine pre-coated white 96 MW plates in complete culture medium [DMEM supplemented with 10% FBS]. Cells were first cultivated at 37° C. with CO₂ 5% in order to allow cell attachment to the plate. Cells were then starved with 200 μl DMEM/well overnight. Immediately prior to the BRET experiment, DMEM was removed and cells were quickly washed with PBS. […] After incubation for further 10 minutes at 37° C., light-emission acquisition at 485 nm and 530 nm was initiated using the Mithras LB940 multilabel reader (Berthold) (1 s/wavelength/well repeated 15 times at room temperature).
# Calculation of BRET ratio was performed as previously described (Angers et al., 2000): [(emission_{530 nm})−(emission_{485 nm})×Cf]/(emission_{485 nm}), where Cf=(emission_{530 nm}) (emission_{485 nm}) for cells expressing the Rluc fusion protein alone under the same experimental conditions. […] For sake of readability, results are expressed in milliBRET units (mBU); mBU corresponds to the BRET ratio multiplied by 1000.
Molecule,% inhibition of [^125I]SDF-1 (human CXCR4 receptor [2]),% of inhibition of [^35S]GTPγS binding stimulated by SDF-1 (100 nM) (human CXCR4 receptor [3]),"IC50 in [^35S]GTPγS binding, NIH3T3/CXCR4 cells (human CXCR4 receptor [3])",inhibition of SDF-1-induced β-arrestin recruitment (BRET) (human CXCR4 receptor [3]),"percentage of inhibition of SDF-1-induced BRET increase, CXCR4 homo-dimers (human CXCR4 receptor [3])",further results
T140 (peptide),–,–,–,–,–,inhibition of SDF-1-stimulated [^35S]GTPγS binding [1]: -159%; inhibition of basal [^35S]GTPγS binding [1]: -17%
B1,61%,66%,5.19 nM,~82%,~33%,IC50 (human CXCR4 receptor [4]): 5.91 nM
B2,–,–,–,–,–,binding result (human CXCR4 receptor [5]): binds
B3,–,–,–,–,–,binding result (human CXCR4 receptor [5]): binds
B4,–,–,–,–,–,binding result (human CXCR4 receptor [5]): binds
B5,49%,58%,8.5 nM,~71%,~21%,–
B6,77%,86%,3.86 nM,~94%,~88%,"IC50, SDF-1 induced U937 cell migration (human CXCR4 receptor [3]): 4.53 ng/mL; IC50 (human CXCR4 receptor [4]): 1.44 nM"
B7,68%,69%,4.05 nM,~81%,~65%,IC50 (human CXCR4 receptor [4]): 6.69 nM
B8,–,–,1.9 nM,~95%,–,"IC50 in [^35S]GTPγS binding, Hela cells (human CXCR4 receptor [3]): 0.2 nM; decrease in SDF-1-induced U937 cells migration (human CXCR4 receptor [3]): > 80%"
B9,–,–,1.5 nM,~93%,–,"IC50 in [^35S]GTPγS binding, Hela cells (human CXCR4 receptor [3]): 0.6 nM; decrease in SDF-1-induced U937 cells migration (human CXCR4 receptor [3]): > 80%; % inhibition of [^125I]SDF-1 (human CXCR4 receptor [6]): 55%"
B10,–,–,–,–,–,binding result (CXCR2:YFP fusion protein): binds
